{
  "source": "paper PMC11059514",
  "about": "(Molecular Metabolism, 2024)",
  "binders": {"B1": {"name": "ERRα prey (pMG1-ERRα), full-size ERRα ORF coupled to gp130 (natural protein)", "chain": "MSSQVVGIEPLYIKAEPASPDSPKGSSETETEPPVALAPGPAPTRCLPGHKEEEDGEGAGPGEQGGGKLVLSSLPKRLCLVCGDVASGYHYGVASCEACKAFFKRTIQGSIEYSCPASNECEITKRRRKACQACRFTKCLRVGMLKEGVRLDRVRGGRQKYKRRPEVDPLPFPGPFPAGPLAVAGGPRKTAAPVNALVSHLLVVEPEKLYAMPDPAGPDGHLPAVATLCDLFDREIVVTISWAKSIPGFSSLSLSDQMSVLQSVWMEVLVLGVAQRSLPLQDELAFAEDLVLDEEGARAAGLGELGAALLQLVRRLQALRLEREEYVLLKALALANSDSVHIEDAEAVEQLREALHEALLEYEAGRAGPGGGAERRRAGRLLLTLPLLRQTAGKVLAHFYGVKLEGKVPMHKLFLEMLEAMMD"}},
  "molecular_target": "T1, PPARα bait (pCLG-PPARα), full-length PPARα fused to a mutant leptin receptor (UniProt Q07869 1-468)",
  "T1 sequence": "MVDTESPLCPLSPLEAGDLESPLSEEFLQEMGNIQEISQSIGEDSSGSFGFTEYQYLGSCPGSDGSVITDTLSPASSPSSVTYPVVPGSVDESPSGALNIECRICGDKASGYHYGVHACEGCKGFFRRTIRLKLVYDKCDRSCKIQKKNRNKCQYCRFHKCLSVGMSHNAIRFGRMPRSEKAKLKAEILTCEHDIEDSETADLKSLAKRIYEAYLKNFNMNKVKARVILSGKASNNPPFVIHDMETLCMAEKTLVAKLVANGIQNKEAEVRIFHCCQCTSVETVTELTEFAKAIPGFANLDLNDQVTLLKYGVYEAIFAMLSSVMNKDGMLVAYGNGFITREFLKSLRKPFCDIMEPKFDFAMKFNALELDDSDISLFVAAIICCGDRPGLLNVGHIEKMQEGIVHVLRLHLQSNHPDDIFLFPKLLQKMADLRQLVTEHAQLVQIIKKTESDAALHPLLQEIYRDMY",
  "assay": "two-hybrid",
  "data": [
    {"binder": "B1", "values": [
      {"measurement": "fold increase of the MAPPIT signal on serum starvation", "value": "~3", "unit": "fold"}
    ]}
  ]
}
